Assay results as given in patent publication JPH10324699A (dated 1998).
Residue numbers refer to the chain shown, from its start. Blank lines part the entries; values can stand above or below the binder they belong to.

Biological target: T1, ヒトFas抗原 (ヒトリンパ球細胞株HPB−ALL細胞上) (human, UniProt P25445 26-335)
T1 sequence (looked up): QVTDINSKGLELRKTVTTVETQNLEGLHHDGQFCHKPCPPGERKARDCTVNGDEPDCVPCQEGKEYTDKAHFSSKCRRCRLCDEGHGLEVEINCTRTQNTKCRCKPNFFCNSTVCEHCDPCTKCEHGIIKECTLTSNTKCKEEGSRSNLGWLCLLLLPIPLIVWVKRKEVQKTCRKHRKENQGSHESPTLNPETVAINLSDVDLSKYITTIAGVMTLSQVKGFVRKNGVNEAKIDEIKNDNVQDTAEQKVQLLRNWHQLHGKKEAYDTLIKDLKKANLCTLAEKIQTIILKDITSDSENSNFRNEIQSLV
Assay: cell-based or functional assay

ED 50 (細胞生存率が50%になるIgMの濃度; HPB-ALL 細胞, WST-1): 3.4 ng/mL
B6: 抗ヒトFasヒト化抗体 [I] (pHμH5-1 及び pHκRF2-52; HμH鎖 + VL-RF鎖) (antibody, human IgM)
heavy: EVQLVQSGAEVKKPGASVKVSCKASGYTFTDYNMHWVRQAPGQGLEWMGYIYPYNGGTGYNQKFKSKATLTVDNSASTAYMELSSLRSEDTAVYYCARSYYAMDYWGQGTLVTVSSGSASAPTLFPLVSCENSPSDTSSVAVGCLAQDFLPDSITFSWKYKNNSDISSTRGFPSVLRGGKYAATSQVLLPSKDVMQGTDEHVVCKVQHPNGNKEKNVPLPVIAELPPKVSVFVPPRDGFFGNPRKSKLICQATGFSPRQIQVSWLREGKQVGSGVTTDQVQAEAKESGPTTYKVTSTLTIKESDWLSQSMFTCRVDHRGLTFQQNASSMCVPDQDTAIRVFAIPPSFASIFLTKSTKLTCLVTDLTTYDSVTISWTRQNGEAVKTHTNISESHPNATFSAVGEASICEDDWNSGERFTCTVTHTDLPSPLKQTISRPKGVALHRPDVYLLPPAREQLNLRESATITCLVTGFSPADVFVQWMQRGQPLSPEKYVTSAPMPEPQAPGRYFAHSILTVSEEEWNTGETYICVVAHEALPNRVTERTVDKSTGKPTLYNVSLVMSDTAGTCY
light: DVVMTQSPLSLPVTLGQPASISCRSSKSLVHSNGNTYLHWYLQKPGQSPRLLIYKVSNRFSGVPDRFSGSGSGTDFTLKISRVEAEDVGVYFCSQSTHVPPAFGQGTKVEIKRTVAAPSVFIFPPSDEQLKSGTASVVCLLNNFYPREAKVQWKVDNALQSGNSQESVTEQDSKDSTYSLSSTLTLSKADYEKHKVYACEVTHQGLSSPVTKSFNRGEC

ED 50 (細胞生存率が50%になるIgMの濃度; HPB-ALL 細胞, WST-1): 10.7 ng/mL
B7: マウス抗ヒトFas抗体CH11(MBL社) (antibody, mouse IgM)
heavy: EVQLQQSGPELVKPGASVKISCKASGYTFTDYNMHWVKQSHGKSLEWIGYIYPYNGGTGYNQKFKSKATLTVDNSSSTAYMELRSLTSEDSAVYYCARSYYAMDYWGQGTSVTVSSESQSFPNVFPLVSCESPLSDKNLVAMGCLARDFLPSTISFTWNYQNNTEVIQGIRTFPTLRTGGKYLATSQVLLSPKSILEGSDEYLVCKIHYGGKNRDLHVPIPAVAEMNPNVNVFVPPRDGFSGPAPRKSKLICEATNFTPKPITVSWLKDGKLVESGFTTDPVTIENKGSTPQTYKVISTLTISEIDWLNLNVYTCRVDHRGLTFLKNVSSTCAASPSTDILTFTIPPSFADIFLSKSANLTCLVSNLATYETLNISWASQSGEPLETKIKIMESHPNGTFSAKGVASVCVEDWNNRKEFVCTVTHRDLPSPQKKFISKPNEVHKHPPAVYLLPPAREQLNLRESATVTCLVKGFSPADISVQWLQRGQLLPQEKYVTSAPMPEPGAPGFYFTHSILTVTEEEWNSGETYTCVVGHEALPHLVTERTVDKSTGKPTLYNVSLIMSDTGGTCY
light: DVVMTQSPLSLPVSLGDQASISCRSSKSLVHSNGNTYLHWYLQKPGQSPKLLIYKVSNRFSGVPDRFSGSGSGTDFTLKISRVEAEDLGVYFCSQSTHVPPAFGGGTKLEIKRADAAPTVSIFPPSSEQLTSGGASVVCFLNNFYPKDINVKWKIDGSERQNGVLNSWTDQDSKDSTYSMSSTLTLTKDEYERHNSYTCEATHKTSTSPIVKSFNRNEC
chain: DDEATILADNKCMCTRVTSRIIPSTEDPNEDIVERNIRIVVPLNNRENISDPTSPLRRNFVYHLSDVCKKCDPVEVELEDQVVTATQSNICNEDDGVPETCYMYDRNKCYTTMVPLRYHGETKMVQAALTPDSCYPD

The remaining lines, values behind:

B1: 抗ヒトFasヒト化抗体 [B] (pHμM1-1 及び pHκKY2-58 でコ・トランスフェクションしたCOS-7細胞の発現産物; HμM鎖 + VL-KY鎖) (antibody)
heavy: B6 heavy with R38K, P41H, Q43K, G44S
light: B6 light with R50K, F92Y
ED 50 (細胞生存率が50%になるIgMの濃度; HPB-ALL 細胞, WST-1): 1.1 ng/mL

B2: 抗ヒトFasヒト化抗体 [E] (pHμM1-1 及び pHκRF2-52; HμM鎖 + VL-RF鎖) (antibody, human IgM)
heavy: B6 heavy with R38K, P41H, Q43K, G44S
light: B6 light
ED 50 (細胞生存率が50%になるIgMの濃度; HPB-ALL 細胞, WST-1): 1.5 ng/mL

B3: 抗ヒトFasヒト化抗体 [G] (pHμH5-1 及び pHκKF2-19; HμH鎖 + VL-KF鎖) (antibody, human IgM)
heavy: B6 heavy
light: B6 light with R50K
ED 50 (細胞生存率が50%になるIgMの濃度; HPB-ALL 細胞, WST-1): 2.4 ng/mL

B4: 抗ヒトFasヒト化抗体 [D] (pHμM1-1 及び pHκRY2-10; HμM鎖 + VL-RY鎖) (antibody, human IgM)
heavy: B6 heavy with R38K, P41H, Q43K, G44S
light: B6 light with F92Y
ED 50 (細胞生存率が50%になるIgMの濃度; HPB-ALL 細胞, WST-1): 1.7 ng/mL

B5: 抗ヒトFasヒト化抗体 [C] (pHμM1-1 及び pHκKF2-19; HμM鎖 + VL-KF鎖) (antibody, human IgM)
heavy: B6 heavy with R38K, P41H, Q43K, G44S
light: B6 light with R50K
ED 50 (細胞生存率が50%になるIgMの濃度; HPB-ALL 細胞, WST-1): 1 ng/mL
